Holding throughout (test): SEC; Superdex 200 on an AKTA FPLC, 20 mM Tris, 1M NaCl, pH 8.0; column calibrated with globular protein standards; oligomeric state = estimated net mass divided by the calculated monomer mass (16.3 kDa)
Assay [1] addresses FbFP F37S (Pseudomonas putida KT2440) (UniProt Q88JB0).
Assay [2] has as its target FbFP F37T (Pseudomonas putida KT2440) (UniProt Q88JB0).
In assay [3] the target is flavin-binding fluorescent protein (FbFP) from Pseudomonas putida (Pseudomonas putida KT2440) (UniProt Q88JB0).

Drawing on PMC3488000, this text covers stoichiometry N for 3 substances.

As a reminder, the stoichiometry N is a count of units in the complex or per binding partner. As to “FbFP F37S (from UniProt Q88JB0 1-151) (natural protein)”, the stoichiometry N in assay [1] is 1.78.
Take “FbFP F37T (from UniProt Q88JB0 1-151) (natural protein)”: the stoichiometry N in assay [2] was 1.87.
With “flavin-binding fluorescent protein (FbFP) from Pseudomonas putida (from UniProt Q88JB0 1-151) (natural protein)”, the stoichiometry N in assay [3] is 1.81.
